Assay results taken from the supplement of paper PMC12042874.
± gives the uncertainty stated by the source.

experiment: amyloid nucleation score (Sup35N fusion, yeast selection) (log enrichment); library NNK2; higher = more nucleation; inactive = no reads after selection
Procedure, shortened: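 Sup35N fusions to peptides of 20 random codons were expressed in psi-negative yeast, induced 24 hours with 100 μM copper sulfate, and grown 7 days at 30°C on medium lacking adenine and uracil. Input and output plasmid inserts were sequenced by Illumina. The nucleation score is the DiMSum log enrichment of output over input reads, centred on the mode score of non-aggregating sequences. Sequences with under 100 input reads were excluded.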

| Substance | amyloid nucleation score |
| --- | --- |
| LNTNPARYLPGMFNPRSKYL | -0.324 ± 1.1 |
| LNTSSYFVIDDFWIIFRRCR | -0.814 ± 0.55 |
| LNTVYCN | -1.09 ± 0.47 |
| LNVGIFNLLTSSGFMGTIRR | 4.39 ± 0.045 |
| LNVKFK | -0.966 ± 1.1 |
| LPCGVSLALHSWENYILNRP | 0.55 ± 0.52 |
| LPEIHLVTLC | -0.802 ± 0.49 |
| LPGSRHNSRMSLRTQVVKVL | inactive |
| LPLLCFTDV | inactive |
| LPLLSWDPRNTSP | -0.218 ± 0.53 |
| LQTFMNVGVFSGDKEYPCVF | 0.662 ± 0.66 |
| LQVLARVDRLSHPGR | 0.636 ± 0.81 |
| LQYCHRGC | -0.179 ± 0.44 |
| LRFKNVWWPYGDYECATIIT | -0.468 ± 0.41 |
| LRFSWDKISFVVRWLVVGLT | 0.138 ± 0.19 |
| LRFYPW | 1.14 ± 0.36 |
| LRGMTLFTPVTLTNSNCMVT | 0.437 ± 0.18 |
| LRGYCLRWRHWTVSILEFGV | -1.02 ± 0.76 |
| LRHDR | 0.43 ± 0.32 |
| LRKHFWLGCEGAWLVFG | 4.81 ± 0.08 |
| LRKWILLLRDYDSLYFCLVA | -0.996 ± 0.36 |
| LRLARKRVECFVLLADFNNR | 0.306 ± 0.53 |
| LRQCKGLRVLLPTGWSYKCE | 1.67 ± 0.58 |
| LRQGCFQTVKLDYRES | -0.032 ± 1.1 |
| LRRSGRSENSRRMTWVWW | 2.75 ± 0.17 |

| Substance | amyloid nucleation score |
| --- | --- |
| LRSACCLIRSLNTAVCGWTK | 4.22 ± 0.048 |
| LRSFM | -0.591 ± 0.5 |
| LRSKTDAPDGRFLAWSSMLC | 0.458 ± 0.25 |
| LRTGHPSI | inactive |
| LRVMSVRYSICVKYNVEFRL | 1.18 ± 0.21 |
| LRVVIHPVRNAGCLGKYGAN | -0.509 ± 0.33 |
| LRVVSES | -0.599 ± 0.35 |
| LRVYKTNTRQDLKLDTIMVG | -1.14 ± 0.34 |
| LRYAYTFDVDLSTRQAAVSL | -0.573 ± 0.79 |
| LSDGN | -1.04 ± 0.76 |
| LSEFYRLRYYTGCQ | 1.05 ± 0.31 |
| LSFFGRDDLNRLHN | -1.41 ± 1.1 |
| LSFGIVKLVMRAFTKKVTKG | 0.388 ± 0.47 |
| LSFRYVFIWIEVFPILGNMR | -1.77 ± 0.34 |
| LSIFKGNTNLLLSYVPALNI | -1.29 ± 0.64 |
| LSINLSDMNFVVHSCLGSLG | 5.45 ± 0.077 |
| LSINSFTKHQ | 0.148 ± 1 |
| LSKINVFWKSSTALQCLAPE | -0.322 ± 0.55 |
| LSLFLLVICSSAFM | inactive |
| LSLLEGKVWLRWY | 1.2 ± 0.61 |
| LSLRDVGGLLSNLSIMCGKG | 0.144 ± 0.25 |
| LSMTKVLFCTFEITSLSLYQ | -0.245 ± 0.62 |
| LSNAFRLNYTLLYAFISYFH | -1.22 ± 0.76 |
| LSNWHHFSQSRDFDKSLWVS | -0.386 ± 0.42 |
| LSNWSPFYMLHQSISFCSRS | 3.08 ± 0.051 |

| Substance | amyloid nucleation score |
| --- | --- |
| LSPVSWYLRITYNAYSMVGQ | 1.91 ± 0.11 |
| LSRAN | inactive |
| LSSLYFSLFNYYLFNRFIFN | inactive |
| LSSSMSSSRASQDFGFLGVH | 0.877 ± 0.48 |
| LSVCLAKPTCDVSF | 0.201 ± 0.33 |
| LSVSHMCEADLQYRTLFLSK | -0.606 ± 0.37 |
| LSVTGDTWRMVSRYSHECKD | 0.859 ± 0.52 |
| LSVTPIFGRNTDTLESGL | -0.093 ± 0.55 |
| LSYPTVYLATLVYFLQMWAV | -0.285 ± 0.37 |
| LSYRHNGPHPGGYNCTGSRV | inactive |
| LSYTSDSRPAGF | -0.347 ± 1.1 |
| LSYVFIVECPSSAGMLPRPF | 4.01 ± 0.13 |
| LTDNS | 0.147 ± 0.61 |
| LTFPA | -0.206 ± 1.1 |
| LTHQRRRLMMCI | 0.283 ± 0.32 |
| LTIPDFRSGRRRVAQRDLVV | -0.157 ± 0.37 |
| LTIVLQLGLL | 8.52 ± 0.066 |
| LTNEI | -0.515 ± 1 |
| LTNNHYIKPFRSRIRVMVMY | 4.79 ± 0.069 |
| LTRYLLWLLVESGFLGRSGV | -0.21 ± 0.79 |
| LTSCGLVWCSIRRPGMKALV | -0.077 ± 0.76 |
| LTSWKDFRHN | 0.4 ± 0.5 |
| LTVLLSMK | -0.911 ± 0.5 |
| LTWSVVRKYSIALRCGGR | -0.002 ± 0.63 |
| LTYILFGYFMASCFMCFFVS | 0.138 ± 1.1 |

| Substance | amyloid nucleation score |
| --- | --- |
| LVAKHSG | 0.693 ± 0.27 |
| LVCYV | 0.611 ± 0.46 |
| LVEAFYNVWRRTSAHCETVC | -0.272 ± 0.55 |
| LVEGCILSRHQESVNLRFCL | 1.22 ± 0.29 |
| LVFDACTPEEVGG | 0.735 ± 0.27 |
| LVGMSATYPTHNWFKVRTYF | -0.104 ± 0.76 |
| LVGSVWFEISFDSQMYSFG | inactive |
| LVGWSGLLTDALEFLLSKDV | -0.592 ± 0.76 |
| LVHYPIYFLDNGFRHGDWEG | -0.187 ± 0.55 |
| LVIALSFCY | 3.57 ± 0.069 |
| LVIKCFCA | 6.476 ± 0.031 |
| LVILEINVPKNIVSQRNYVP | 8.045 ± 0.03 |
| LVLAASTFQYSGRGYASDML | 1.49 ± 0.29 |
| LVLWM | 1.68 ± 0.36 |
| LVLYVSKMPYMSEPRSIILR | 0.64 ± 0.58 |
| LVNMGSGPALYLYPLSIMVK | -1.42 ± 1.1 |
| LVNSGKLVIPPAVSWWYNWF | -0.763 ± 0.37 |
| LVNVIS | 0.2 ± 0.35 |
| LVQGNTFE | 1.19 ± 0.44 |
| LVQYMTMRCVFSNIGGMTSG | 0.263 ± 0.64 |
| LVRDHRNRVGFCQMSQ | 0.248 ± 0.44 |
| LVRTLAYCASKNNFVRL | -0.038 ± 0.63 |
| LVSERGSWVGLRFCSRSSVT | 0.359 ± 0.56 |
| LVSKSERER | 5.451 ± 0.053 |
| LVSLLFFGSVSLAKCQWN | -0.526 ± 0.79 |

| Substance | amyloid nucleation score |
| --- | --- |
| LVSYQVFSWSEPENSV | -0.239 ± 0.79 |
| LVTECNRDGTLDG | -0.582 ± 0.49 |
| LVVLLMRWSLPLNVESGMF | -0.105 ± 1.1 |
| LVVNASLRWIRHWSKGF | 4.515 ± 0.035 |
| LVYLELTELQLCDAFAKVKN | 0.133 ± 0.25 |
| LWFITCNMSGHWLLTERR | 4.39 ± 0.064 |
| LWFQVTFDRICLQITTHTEL | 4.86 ± 0.075 |
| LWFYFFRDYLIGPMWNKIVI | -0.898 ± 1.1 |
| LWGMGGAWEPERETLVV | -0.268 ± 0.63 |
| LWQLPIILWFLRNCVMRNPA | -0.723 ± 0.79 |
| LWRSVAKIVSPN | -1.74 ± 0.78 |
| LWSSKYYKPPYWDNVVCSII | -0.699 ± 1 |
| LWVGQLTTY | 0.199 ± 0.45 |
| LYAVRSALYFCTVYFGSSNR | 3.18 ± 0.13 |
| LYDTNVKWVFSCYSKACSCK | -0.323 ± 0.79 |
| LYIALIFSISHGWCIAFRLT | -0.214 ± 1.1 |
| LYKYLCAIIKNVDKVVPLRM | -0.904 ± 0.49 |
| LYLKFYLCTGKDNDWNT | inactive |
| LYLSVPQYYFSCLFSMVEVQ | -1.07 ± 0.61 |
| LYMAFREMQSWQHCW | -0.227 ± 0.49 |
| LYPCNLELVQQHFLVMTNLG | -0.034 ± 0.23 |
| LYPLCYGL | -0.829 ± 1.1 |
| LYPSFEDTLRWPSPRGMKMC | 0.182 ± 1.1 |
| LYQNSTILWLCCLWPVPYSG | 9.921 ± 0.076 |
| LYRAGVAFVCTYFVNSGEF | 2.61 ± 0.13 |

| Substance | amyloid nucleation score |
| --- | --- |
| LYRRIRCFIYPFCKGVRCLC | -1.77 ± 0.62 |
| LYRTYLYTDYFTKMHV | -1.16 ± 0.76 |
| LYSLEKTCQVELCRRISTLL | -1.35 ± 0.75 |
| LYSVGFRLTS | inactive |
| LYTSSATHLIRP | inactive |
| LYVCPSASWESCPGGIKRMG | inactive |
| LYVTQTS | -0.053 ± 0.35 |
| LYYAVQFLKIRTLLPECSLQ | 0.16 ± 0.43 |
| LYYGNPEKIPADGLSSHIMQ | 3.7 ± 0.063 |
| LYYTCDIHTGRWWVLLVHGV | 4.28 ± 0.11 |
| MAACCHKLWLTCFDTVRMFN | -0.478 ± 0.41 |
| MAESELQICMFYTMGCWDMV | -0.165 ± 0.42 |
| MANVADMIVDGLM | 0.525 ± 0.49 |
| MAVKRGIHRQADPGITWDTE | 5.17 ± 0.082 |
| MCCFRNSNVGAYRSSSIVNG | -0.403 ± 1 |
| MCGKFNTSSCIEIYRDSEFM | -0.432 ± 0.23 |
| MCLMYANWERFDQKNGLR | 4.12 ± 0.12 |
| MCMGFRRPLTRTFFRTLCAR | 0.684 ± 0.54 |
| MCMLDRRYQTVMSKVWPNLT | 0.224 ± 0.33 |
| MCPNGPAVIGMLFRLHTLFK | 0.168 ± 0.35 |
| MCSQGCTHFRVAWPLRACRW | 3.85 ± 0.072 |
| MCVLECFDAGSGYLR | 1.06 ± 0.59 |
| MDGVHFVRYQM | 0.181 ± 0.45 |
| MDIFRYVCNCYKSSNKKVFG | -1.25 ± 0.78 |
| MDNTWNLCDSFYSCSGDLNT | -0.595 ± 0.35 |

| Substance | amyloid nucleation score |
| --- | --- |
| MDSIHFV | -0.029 ± 0.41 |
| MDSILVNVYVVNW | 9.259 ± 0.042 |
| MDVGYCRNAVHRMLGMNCMM | 4.95 ± 0.062 |
| MEEGRS | 0.525 ± 0.28 |
| MEFSAKFIYFS | 1.48 ± 0.11 |
| MEPSVIRF | -0.271 ± 0.55 |
| MESRILRNIYFCLTCKPSQW | 2.24 ± 0.17 |
| MEVNLKVKSLCQWGT | 6.791 ± 0.045 |
| MEWKSGL | 0.534 ± 0.64 |
| MFCKLRFSVFLAWVDVK | 0.356 ± 0.6 |
| MFEIIPFPTSISDRGSTIYM | -0.855 ± 0.55 |
| MFGGPTFNMRWFFTFFSRGR | 4.46 ± 0.046 |
| MFILGVRPMISKSHNVPTQR | -0.171 ± 0.42 |
| MFKDNLLIVLFMLLMGLMRW | 3.45 ± 0.069 |
| MFKSCQEGIKHWNNPT | 3.59 ± 0.051 |
| MFLILMCNCSYVGILRPNST | 6.672 ± 0.03 |
| MFRGVQN | 0.899 ± 0.53 |
| MFVVKNRGCVM | -0.16 ± 0.3 |
| MFWSTSYRNNFWTPIWEKLG | -0.597 ± 0.39 |
| MFYFRFLKGTSQMIKAAMRS | -0.059 ± 0.49 |
| MGAYEGDRVQMLEHADFRKN | -0.355 ± 0.74 |
| MGCYFSSLSTTHKGAVDVQL | 0.13 ± 0.24 |
| MGDTRNGYFSRMLFYTDCPW | 0.037 ± 0.43 |
